Where a SMILES comes first, the peptide text is derived from it. [ ]: non-standard residue; d: D form. The star is where a group is joined. Sta = CC(C)C[C@H](N)[C@@H](O)CC(=O)O; Isovaleryl = CC(C)CC(=O)*
Assays:
[1] = target: T1, Recombinant human Asp2(a) (Homo sapiens, UniProt P56817); experiment: β-Secretase assay with synthetic peptide substrates (RP-HPLC); assay type: biochemical
T1 construct: made in house; β-octylglucoside membrane extract purified over Mono Q and Mono S
Experimental: Recombinant human Asp2(a) prepared in CHO cells and purified as described in Example 11 was used to assay Asp2(a) proteolytic activity directly. Activity assays for Asp2(a) were performed using synthetic peptide substrates containing either the wild-type APP β-secretase site (SEVKM ↓DAEFR; SEQ ID NO: 64), the Swedish KM→NL mutation (SEVNL↓DAEFR; SEQ ID NO: 63), or the Aβ40 and 42 γ-secretase sites (RRGGVV↓IA↓TVIVGER; SEQ ID NO: 65). Reactions were performed in 50 mM 2-[N-morpholino]ethane-sulfonate (“Na-MES,” pH 5.5) containing 1% β-octylglucoside, […] peptide substrate, and recombinant Asp2(a) (1-5 μg protein) for various times at 37° C. The reaction products were quantified by RP-HPLC using a linear gradient from 0-70 B over 30 minutes (A=0.1% TFA in water, B=0.1% TFA/10% water/90% AcCN). The elution profile was monitored by absorbance at 214 nm. […] Percent hydrolysis of the peptide substrate was calculated by comparing the integrated peak areas for the two product peptides and the starting material derived from the absorbance at 214 nm. […]
The specificity of the protease cleavage reaction was determined by performing the β-secretase assay in the presence of 8 μM pepstatin A and the presence of a cocktail of protease inhibitors (10 μM leupeptin, 10 μM E64, and 5 mM EDTA). […]

[2] = target: T2, Hu-Asp2(b) (Homo sapiens, UniProt P56817); experiment: β-Secretase proteolysis assay with Hu-Asp2(b); assay type: biochemical; settings: identical assay conditions to Asp2(a)
T2 construct: made in house; host or cells: CHO-K1 transfected with pcDNA3.1(+)Hygro/Hu-Asp2(b); β-octylglucoside extract purified over Mono Q and Mono S
T2 sequence (P56817 46-476 isoform P56817-2): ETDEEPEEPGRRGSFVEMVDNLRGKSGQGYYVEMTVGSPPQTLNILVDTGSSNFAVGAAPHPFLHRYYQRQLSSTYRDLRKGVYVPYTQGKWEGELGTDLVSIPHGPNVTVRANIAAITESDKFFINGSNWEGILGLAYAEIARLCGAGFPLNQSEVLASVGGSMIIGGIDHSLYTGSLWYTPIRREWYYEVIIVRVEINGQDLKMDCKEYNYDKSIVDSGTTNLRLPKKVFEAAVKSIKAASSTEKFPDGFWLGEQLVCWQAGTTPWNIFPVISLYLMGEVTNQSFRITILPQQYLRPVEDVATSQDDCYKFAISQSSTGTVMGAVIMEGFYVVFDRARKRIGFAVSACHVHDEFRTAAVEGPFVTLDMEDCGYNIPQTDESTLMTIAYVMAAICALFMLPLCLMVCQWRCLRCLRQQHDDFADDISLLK
Experimental: Recombinant human Asp2(a) prepared in CHO cells and purified as described in Example 11 was used to assay Asp2(a) proteolytic activity directly. Activity assays for Asp2(a) were performed using synthetic peptide substrates containing either the wild-type APP β-secretase site (SEVKM ↓DAEFR; SEQ ID NO: 64), the Swedish KM→NL mutation (SEVNL↓DAEFR; SEQ ID NO: 63), or the Aβ40 and 42 γ-secretase sites (RRGGVV↓IA↓TVIVGER; SEQ ID NO: 65). Reactions were performed in 50 mM 2-[N-morpholino]ethane-sulfonate (“Na-MES,” pH 5.5) containing 1% β-octylglucoside, […] peptide substrate, and recombinant Asp2(a) (1-5 μg protein) for various times at 37° C. The reaction products were quantified by RP-HPLC using a linear gradient from 0-70 B over 30 minutes (A=0.1% TFA in water, B=0.1% TFA/10% water/90% AcCN). The elution profile was monitored by absorbance at 214 nm. In preliminary experiments, the two product peaks which eluted before the intact peptide substrate, were confirmed to have the sequence DAEFR (SEQ ID NO: 72)and SEVNL (SEQ.ID NO: 73) using both Edman sequencing and MADLI-TOF mass spectrometry. Percent hydrolysis of the peptide substrate was calculated by comparing the integrated peak areas for the two product peptides and the starting material derived from the absorbance at 214 nm. […]

T1 sequence (P56817 46-501): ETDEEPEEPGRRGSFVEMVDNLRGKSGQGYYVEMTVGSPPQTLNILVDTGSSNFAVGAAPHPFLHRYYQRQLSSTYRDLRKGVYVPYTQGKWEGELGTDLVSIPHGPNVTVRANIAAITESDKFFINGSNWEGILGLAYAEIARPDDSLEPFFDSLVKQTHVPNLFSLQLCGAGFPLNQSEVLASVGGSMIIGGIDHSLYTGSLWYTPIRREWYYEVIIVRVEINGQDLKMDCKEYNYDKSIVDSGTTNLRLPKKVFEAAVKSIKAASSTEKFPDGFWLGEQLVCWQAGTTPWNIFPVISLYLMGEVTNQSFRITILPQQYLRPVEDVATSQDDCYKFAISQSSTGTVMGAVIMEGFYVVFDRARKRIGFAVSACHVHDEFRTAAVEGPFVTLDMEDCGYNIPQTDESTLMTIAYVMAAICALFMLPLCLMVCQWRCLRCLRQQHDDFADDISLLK

sensitivity of proteolytic activity to inhibitor ([1]; 8 μM pepstatin A) | proteolysis relative to wild type APP peptide ([1]; after 6 hours, pH 5.5, 37° C.) | cleavage of peptide substrate [2] | Compound
insensitive | – | – | CC(C)CC(=O)N[C@H](C(=O)N[C@H](C(=O)N[C@@H](CC(C)C)[C@@H](O)CC(=O)N[C@@H](C)C(=O)N[C@@H](CC(C)C)[C@@H](O)CC(=O)O)C(C)C)C(C)C [pepstatin A] (Isovaleryl-VV[Sta]A[Sta]-OH)
– | about 10 fold | cleaves | SEVNLDAEFR (OTHER INFORMATION: Description of Artificial Sequence: synthetic) [Swedigh β-secretase peptide, synthetic peptide substrate containing the Swedish KM→NL mutation of the APP β-secretase site]

Reference: patent US6790610B2, “Alzheimer's disease, secretase, APP substrates therefor, and uses therefor” (Pharmacia & Upjohn Company, priority 1998, dated 2004)
